{"source": "patent US20070065439A1", "molecular_target": "type I IL-1 receptor (IL-1R) (UniProt P14778)", "sequence (P14778 18-569 limits assumed)": "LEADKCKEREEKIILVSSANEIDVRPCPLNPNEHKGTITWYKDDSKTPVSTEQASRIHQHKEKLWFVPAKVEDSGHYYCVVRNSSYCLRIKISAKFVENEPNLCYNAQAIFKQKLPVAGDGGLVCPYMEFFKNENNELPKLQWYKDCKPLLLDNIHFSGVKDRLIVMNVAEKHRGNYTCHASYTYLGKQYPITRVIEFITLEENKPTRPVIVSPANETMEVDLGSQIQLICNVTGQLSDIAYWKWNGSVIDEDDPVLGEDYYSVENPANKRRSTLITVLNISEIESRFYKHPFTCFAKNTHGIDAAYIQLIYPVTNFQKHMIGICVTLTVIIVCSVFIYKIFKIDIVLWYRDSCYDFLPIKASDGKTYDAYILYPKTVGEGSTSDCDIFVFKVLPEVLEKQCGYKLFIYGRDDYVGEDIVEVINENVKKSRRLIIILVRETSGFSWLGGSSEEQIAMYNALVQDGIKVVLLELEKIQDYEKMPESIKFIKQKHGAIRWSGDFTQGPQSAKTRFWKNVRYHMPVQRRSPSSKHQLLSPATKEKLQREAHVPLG", "assay": "cell-based or functional assay", "data": [{"substance": "anakinra (KINERET) (from UniProt P18510 26-177) (ligand)", "values": [{"measurement": "EC50, inhibition of IL-1β-induced IL-6 production in MRC-5 cells", "result": 0.077, "unit": "nM"}, {"measurement": "EC50, inhibition of IL-1β-induced IL-8 production in human whole blood", "result": 0.984, "unit": "nM"}]}]}
